# Assay results published in the Human Domainome abundance scans (Beltran et al. 2025).
# ± gives the uncertainty stated by the source.
# B1: Histone H1t, residues 44 to 112; numbered along this chain, P22492 (parent)
# chain: VSKLITEALSVSQERVGMSLVALKKALAAAGYDVEKNNSRIKLSLKSLVNKGILVQTRGTGASGSFKLS
# Variants of: B1
# Test: abundance fitness (aPCA) (normalised: wild type 0, dead -1); higher = more abundant; growth selection in yeast, the domain comes from the species named
# Conditions: Homo sapiens
row,Variant,abundance fitness
1,VSKLITEALSVSQERVGMSLVALKKALAAAGYDVEKNNSPIKLSLKSLVNKGILVQTRGTGASGSFKLS [R40P],-0.444 ± 0.03
2,VSKLITEALSVSQERVGMSLVALKKALAAAGYDVEKNNSSIKLSLKSLVNKGILVQTRGTGASGSFKLS [R40S],-0.404 ± 0.12
3,VSKLITEALSVSQERVGMSLVALKKALAAAGYDVEKNNSTIKLSLKSLVNKGILVQTRGTGASGSFKLS [R40T],-0.085 ± 0.03
4,VSKLITEALSVSQERVGMSLVALKKALAAAGYDVEKNNSKIKLSLKSLVNKGILVQTRGTGASGSFKLS [R40K],0.128 ± 0.031
5,VSKLITEALSVSQERVGMSLVALKKALAAAGYDVEKNNSHIKLSLKSLVNKGILVQTRGTGASGSFKLS [R40H],-0.094 ± 0.072
6,VSKLITEALSVSQERVGMSLVALKKALAAAGYDVEKNNSLIKLSLKSLVNKGILVQTRGTGASGSFKLS [R40L],-0.097 ± 0.12
7,VSKLITEALSVSQERVGMSLVALKKALAAAGYDVEKNNSQIKLSLKSLVNKGILVQTRGTGASGSFKLS [R40Q],0.024 ± 0.028
8,VSKLITEALSVSQERVGMSLVALKKALAAAGYDVEKNNSGIKLSLKSLVNKGILVQTRGTGASGSFKLS [R40G],-0.372 ± 0.037
9,VSKLITEALSVSQERVGMSLVALKKALAAAGYDVEKNNSEIKLSLKSLVNKGILVQTRGTGASGSFKLS [R40E],-0.036 ± 0.056
10,VSKLITEALSVSQERVGMSLVALKKALAAAGYDVEKNNSAIKLSLKSLVNKGILVQTRGTGASGSFKLS [R40A],0.091 ± 0.035
11,VSKLITEALSVSQERVGMSLVALKKALAAAGYDVEKNNSMIKLSLKSLVNKGILVQTRGTGASGSFKLS [R40M],-0.215 ± 0.18
12,VSKLITEALSVSQERVGMSLVALKKALAAAGYDVEKNNSNIKLSLKSLVNKGILVQTRGTGASGSFKLS [R40N],-0.165 ± 0.12
13,VSKLITEALSVSQERVGMSLVALKKALAAAGYDVEKNNSVIKLSLKSLVNKGILVQTRGTGASGSFKLS [R40V],-0.396 ± 0.21
14,VSKLITEALSVSQERVGMSLVALKKALAAAGYDVEKNLSRIKLSLKSLVNKGILVQTRGTGASGSFKLS [N38L],0.048 ± 0.066
15,VSKLITEALSVSQERVGMSLVALKKALAAAGYDVEKNHSRIKLSLKSLVNKGILVQTRGTGASGSFKLS [N38H],-0.405 ± 0.39
16,VSKLITEALSVSQERVGMSLVALKKALAAAGYDVEKNSSRIKLSLKSLVNKGILVQTRGTGASGSFKLS [N38S],0.044 ± 0.09
17,VSKLITEALSVSQERVGMSLVALKKALAAAGYDVEKNMSRIKLSLKSLVNKGILVQTRGTGASGSFKLS [N38M],0.084 ± 0.16
18,VSKLITEALSVSQERVGMSLVALKKALAAAGYDVEKNPSRIKLSLKSLVNKGILVQTRGTGASGSFKLS [N38P],-0.168 ± 0.069
19,VSKLITEALSVSQERVGMSLVALKKALAAAGYDVEKNWSRIKLSLKSLVNKGILVQTRGTGASGSFKLS [N38W],0.105 ± 0.22
20,VSKLITEALSVSQERVGMSLVALKKALAAAGYDVEKNTSRIKLSLKSLVNKGILVQTRGTGASGSFKLS [N38T],0.109 ± 0.14

row,Variant,abundance fitness
1,VSKLITEALSVSQERVGMSLVALKKALAAAGYDVEKNASRIKLSLKSLVNKGILVQTRGTGASGSFKLS [N38A],0.106 ± 0.087
2,VSKLITEALSVSQERVGMSLVALKKALAAAGYDVEKNGSRIKLSLKSLVNKGILVQTRGTGASGSFKLS [N38G],-0.122 ± 0.15
3,VSKLITEALSVSQERVGMSLVALKKALAAAGYDVEKNVSRIKLSLKSLVNKGILVQTRGTGASGSFKLS [N38V],0.047 ± 0.085
4,VSKLITEALSVSQERVGMSLVALKKALAAAGYDVEKNRSRIKLSLKSLVNKGILVQTRGTGASGSFKLS [N38R],-0.393 ± 0.28
5,VSKLITEALSVSQERVGMSLVALKKALAAAGYDVEKNKSRIKLSLKSLVNKGILVQTRGTGASGSFKLS [N38K],-0.124 ± 0.36
6,VSKLITEALSVSQERVGMSLVALKKALAAAGYDVEKNISRIKLSLKSLVNKGILVQTRGTGASGSFKLS [N38I],-0.162 ± 0.34
7,VSKLITEALSVSQERVGMSLVALKKALAAAGYDVEKNESRIKLSLKSLVNKGILVQTRGTGASGSFKLS [N38E],-0.061 ± 0.14
8,VSKLITEALSVSQERVGMSLVALKKALAAAGYDVEKNQSRIKLSLKSLVNKGILVQTRGTGASGSFKLS [N38Q],-0.058 ± 0.1
9,VSKLITEALSVSQERVGMSLVALKKALAAAGYDVEKNDSRIKLSLKSLVNKGILVQTRGTGASGSFKLS [N38D],-0.632 ± 0.23
10,VSKLITEALSVSQERVGMSLVALKKALAAAGYDVEKNNSRFKLSLKSLVNKGILVQTRGTGASGSFKLS [I41F],-0.055 ± 0.031
11,VSKLITEALSVSQERVGMSLVALKKALAAAGYDVEKNNSRCKLSLKSLVNKGILVQTRGTGASGSFKLS [I41C],-0.439 ± 0.054
12,VSKLITEALSVSQERVGMSLVALKKALAAAGYDVEKNNSREKLSLKSLVNKGILVQTRGTGASGSFKLS [I41E],-0.813 ± 0.11
13,VSKLITEALSVSQERVGMSLVALKKALAAAGYDVEKNNSRDKLSLKSLVNKGILVQTRGTGASGSFKLS [I41D],-0.742 ± 0.13
14,VSKLITEALSVSQERVGMSLVALKKALAAAGYDVEKNNSRHKLSLKSLVNKGILVQTRGTGASGSFKLS [I41H],-0.444 ± 0.049
15,VSKLITEALSVSQERVGMSLVALKKALAAAGYDVEKNNSRMKLSLKSLVNKGILVQTRGTGASGSFKLS [I41M],-0.191 ± 0.031
16,VSKLITEALSVSQERVGMSLVALKKALAAAGYDVEKNNSRLKLSLKSLVNKGILVQTRGTGASGSFKLS [I41L],-0.124 ± 0.026
17,VSKLITEALSVSQERVGMSLVALKKALAAAGYDVEKNNSRGKLSLKSLVNKGILVQTRGTGASGSFKLS [I41G],-0.405 ± 0.041
18,VSKLITEALSVSQERVGMSLVALKKALAAAGYDVEKFNSRIKLSLKSLVNKGILVQTRGTGASGSFKLS [N37F],-0.178 ± 0.29
19,VSKLITEALSVSQERVGMSLVALKKALAAAGYDVEKGNSRIKLSLKSLVNKGILVQTRGTGASGSFKLS [N37G],-0.091 ± 0.12
